Results reported in patent US8372580B2, “BRCA1 function-based cellular assays” (Morehouse School of Medicine, priority 2008, dated 2013).
Residue numbers refer to the chain shown, from its start. Names and notes keep the numbering of the source.

B1: BRCA1 (aa 1-182): amino-terminal BRCA1 fragment, residues 1-182, with N-terminal FLAG sequence (protein, UniProt P38398 1-182, looked up, fragment)
chain: MDLSALRVEEVQNVINAMQKILECPICLELIKEPVSTKCDHIFCKFCMLKLLNQKKGPSQCPLCKNDITKRSLQESTRFSQLVEELLKIICAFQLDTGLEYANSYNFAKKENNSPEHLKDEVSIIQSMGYRNRAKRLLQSEPENPSLQETSLSVQLSNLGTVRTLRTKQRIQPQKTSVYIEL
modifications: N-terminal FLAG tag
B2: BRCA1 (aa 1-182) Mutant #1: BRCA1 1-182 fragment point mutant 1; apparently K109R (protein, UniProt P38398 1-182, looked up, fragment K109R)
chain: B1 chain with K109R
B3: BRCA1 (aa 1-182) Mut#4: BRCA1 1-182 fragment point mutant 4; apparently C61G (protein, UniProt P38398 1-182, looked up, fragment C61G)
chain: B1 chain with C61G

System: ERα transcriptional activity in T47D breast cancer cells
Assay: Cell based assay #2: ERE-luciferase reporter, E2-induced ERα activation by Ubc9 C93S
Settings: Ubc9 C93S (SUMO-independent), E2 1 μM
Procedure: T47D cells (5×10^5) were plated in 6-well plates for 24 hours. The cells were washed twice in PBS followed by the addition of phenol red free DMEM containing 5% charcoal-stripped FBS for 48 hrs before transfection. The cells were transfected with 1 μg of each of the indicated plasmids (with a total of 2.5 μg DNA) using lipofectamine 2000 (Life Technology, USA). The cells were induced with 1 μM of E2 4 hours after transfections, harvested after an additional 40 hrs and assayed for luciferase activity following the manufacturer's instructions. Each set of experiments was performed in triplicate and repeated a least three times.

| Molecule | inhibition of E2-mediated ERα transcription activation by Ubc9/C93S |
| --- | --- |
| B1 | inhibit E2-mediated ERα transcription activation by Ubc9/C93S |
| B2 | unlike their respective Mut #1 and Mut#4, inhibit |
| B3 | unlike their respective Mut #1 and Mut#4, inhibit |
